Four substances from article PMC4619592 can be followed below.

Test [1] concerns the target delta-P-domain mutant of GNNV capsid protein (residues 35-217) (orange-spotted grouper nervous necrosis virus (OSGNNV)). Description: crystal structure; T = 1 delta-P-domain mutant (35-217), 3.1 Å; crystals from 0.2 M MgCl2, 0.1 M HEPES-Na (pH 7.5), 30% PEG400.
For test [2] the target is unchanged. Description: SDS-PAGE; oligomerization of three CPs in solution, bands compared to protein standards.
Test [3] concerns the target Grouper nervous necrosis virus capsid protein, full length (338 residues) (orange-spotted grouper nervous necrosis virus (OSGNNV)). The description is as above.
The target in test [4] is N-ARM deletion mutant of GNNV capsid protein (residues 35-338) (orange-spotted grouper nervous necrosis virus (OSGNNV)). The test is described as above.
Test [5] addresses Truncated P-domain of GNNV capsid protein (residues 214-338) (orange-spotted grouper nervous necrosis virus (OSGNNV)). Description: SEC; purified P-domain on Superdex 75 10/300 GL in the presence of Ca2+, against protein standards. On the technique in general: Size exclusion chromatography separates by hydrodynamic size, large species first.
The target is the same in test [6]. Description: crystal structure; truncated P-domain (214-338), 1.2 Å; crystals from 0.2 M Ca acetate, 0.1 M MES (pH 6.5), 10% PEG8000.

For the substance “delta-P-domain mutant of GNNV capsid protein (residues 35-217) (domain or fragment)”, the stoichiometry N (commonly the number of molecules, sites or subunits per partner or assembly) in test [1] amounted to 60; in test [2] it was 2.

Turning to “Grouper nervous necrosis virus capsid protein, full length (338 residues) (natural protein)”, the stoichiometry N in test [3] is 3. “N-ARM deletion mutant of GNNV capsid protein (residues 35-338) (domain or fragment)”: in test [4], the stoichiometry N stood at 3. In the case of “Truncated P-domain of GNNV capsid protein (residues 214-338) (domain or fragment)”, the stoichiometry N in test [5] and in test [6] was 3 in each case.
